Measured values as given in patent US20200399712A1, “COMPOSITIONS AND METHODS FOR THE DIAGNOSIS AND DETECTION OF TUMORS AND CANCER PROGNOSIS” (priority 2018, published 2020).
“Also recorded” adds a separate entry of the source.

Columns and labels:
HPV-16 genome = assay: qPCR sensitivity against HPV-16 copy number (known-copy HPV-16 DNA among 10 ng normal human DNA); conditions: for number of reactions against 10 HPV-16 copies / number of reactions under 30 HPV-16 copies: samples tested 3 times, 10 ng DNA from healthy individual
Description: (§1) All samples were run in triplicates.
To seek the most promising primer-probe set in the viewpoint of sensitivity, Applicants evaluated the sensitivity analysis for these candidate primer-probe sets. […] Therefore, the sensitivity of E6 (FIG. 3A) and E7 (FIG. 3B) was also 30 copies. […] The candidate primer-probe sets were the “Min-4” (FIG. 3C), “Min-5” (FIG. 3D), “Min-6” (FIG. 3E), “Max-10” (FIG. 3F), “E6-11” (FIG. 3G), “E6-13” (FIG. 3H), respectively.
In addition, Applicants performed sensitivity analysis to identify the most sensitive primer/probe set from among the candidate sets.
To validate the function of primer/probe sets, Applicants calculated the slope of delta Rn against cycle threshold for HPV-16 copy number detection from defined HPV copy number DNA derived from CaSki cell line.

HPV-16 [1] = assay: qPCR sensitivity against HPV-HNSCC tumor samples diluted among 10 ng normal human DNA; conditions: for sensitivity under 100 cells / sensitivity under single cells / sensitivity under 10 cells: 32 HPV-HNSCC tumor samples; for sensitivity under single cells: 6.6 pg DNA; for sensitivity under 10 cells: 66 pg DNA; for Sensitivity, 1 cell / Sensitivity, 3 cells / Sensitivity, 10 cells / Sensitivity, 30 cells / Sensitivity, 100 cells: tumor DNA dilution, fraction of 32 samples
Experimental: Quantitative real-time polymerase chain reaction (qRT-PCR) was used to examine the threshold in each experiment. qRT-PCR was performed using Quant Studio 6 Flex Real-Time PCR System (Thermo Fisher Scientific). All samples were run in triplicates. HPV-16 viral amplicon copy number estimations were developed using the CaSki cell line. After amplification of the amplicon by PCR, DNA concentration was calculated by weight NanoDrop®, then converted to DNA copy number by calculation based on the molecular weight of the double stranded amplicon. […] In the other 32 HPV-HNSCC cohort, Applicants diluted the tumor sample to 990 pg, 198 pg, 99 pg, 39.6 pg, 7.9 pg, 3.2 pg, and 1.6 pg of amount tumor weight, (correspond to 150, 30, 15, 6, 1.2, 0.6, and 0.3 cells: assumption that 1 tumor cell have 6.6 pg DNA (=3*10^9 (human DNA genome bp)*2 (diploid)*1.67*10^(−24) g (weight/Dalton))) combined with 10 ng normal leukocyte human DNA and compare the threshold of each primer-probe sets.
In this regard, Applicants investigated the other 32 HPV-HNSCC tumor samples. From the assumption that 1 cell tumor DNA contain 6.6 pg DNA, Applicants made the dilution series by DNA derived from normal lymphocyte as described and decide the threshold for each primer-probe set.
Furthermore, to determine whether these designed primer/probe sets also have a high sensitivity in a separate cohort, Applicants performed PCR in a validation cohort of 32 additional primary tumor samples with validated presence of HPV-16. Applicants prepared serial of dilutions of tumor DNA in normal lymphocyte DNA from non-cancer individuals and determined the threshold for each primer/probe set and defined amplification thresholds expressed in number of tumor cells for each sample (Table 5).

HPV-16 [2] = assay: qPCR on 20 ng DNA from saliva samples of HPV-HNSCC patients; conditions: 28 HPV-HNSCC saliva samples
Experimental: as §1
The sensitivity of detection from saliva 20 ng DNA samples is 32.1% (9/28) in E6 primer-probe sets, 42.9% (12/28) in E7 primer-probe sets, 35.7% (10/28) in “Min-5” primer-probe sets, 46.4% (13/28) in “Max-10” primer-probe sets. The sensitivity of combination of “5” and “10” is 50% (14/28) and that of E6 and E7 is 42.9% (12/28). By the standard curve analysis, the copy numbers that detected by “Max-10” primer-probe sets were the highest in these 4 primer-probe sets. The slope of standard curve is −3.5 in “Min-5” primer-probe sets when delta Rn is plotted against cycle threshold (FIG. 5).

[3] = among 10 ng normal DNA, triplicate qPCR

B1: BR E6-1: HPV-16 E6 region (172-373 bp) primer/probe set, SEQ ID NO: 58-60 (nucleic acid)
DNA 1: CAGTTACTGCGACGTGAGGT
DNA 2: ACAGCATATGGATTCCCATCTC
DNA 3: ACTTTGCTTTTCGGGATTTATGCATAGTA
modifications: chemistry not given here
reaction under 30 copies of HPV-16 genome (HPV-16 genome; [3]): consistently amplified
reaction under 30 copies of HPV-16 genome (HPV-16 genome; among 10 ng normal DNA, triplicate qPCR, listed as E6-11): react consistently
number of reactions against 10 HPV-16 copies (HPV-16 genome): one
number of reactions under 30 HPV-16 copies (HPV-16 genome): 3 reactions
sensitivity under 100 cells (HPV-16 [1]): 87.5%
sensitivity under single cells (HPV-16 [1]): 3.1%
sensitivity under 10 cells (HPV-16 [1]): 46.9%
Threshold of tumor cell numbers for HPV-16 detection (HPV-16 [1]; Sample # 1): 150.0 tumor cells
Threshold of tumor cell numbers for HPV-16 detection (HPV-16 [1]; Sample # 2): 30.0 tumor cells
Threshold of tumor cell numbers for HPV-16 detection (HPV-16 [1]; Sample # 3): 150.0 tumor cells
Threshold of tumor cell numbers for HPV-16 detection (HPV-16 [1]; Sample # 4): 60.0 tumor cells
Threshold of tumor cell numbers for HPV-16 detection (HPV-16 [1]; Sample # 5): 30.0 tumor cells
Threshold of tumor cell numbers for HPV-16 detection (HPV-16 [1]; Sample # 6): 60.0 tumor cells
Threshold of tumor cell numbers for HPV-16 detection (HPV-16 [1]; Sample # 7): 30.0 tumor cells
Threshold of tumor cell numbers for HPV-16 detection (HPV-16 [1]; Sample # 8): 150.0 tumor cells
Threshold of tumor cell numbers for HPV-16 detection (HPV-16 [1]; Sample # 9): 30.0 tumor cells
Threshold of tumor cell numbers for HPV-16 detection (HPV-16 [1]; Sample # 10): 30.0 tumor cells
Threshold of tumor cell numbers for HPV-16 detection (HPV-16 [1]; Sample # 11): 30.0 tumor cells
Threshold of tumor cell numbers for HPV-16 detection (HPV-16 [1]; Sample # 12): 15.0 tumor cells
Threshold of tumor cell numbers for HPV-16 detection (HPV-16 [1]; Sample # 13): 60.0 tumor cells
Threshold of tumor cell numbers for HPV-16 detection (HPV-16 [1]; Sample # 14): 60.0 tumor cells
Threshold of tumor cell numbers for HPV-16 detection (HPV-16 [1]; Sample # 15): 30.0 tumor cells
Threshold of tumor cell numbers for HPV-16 detection (HPV-16 [1]; Sample # 16): 6.0 tumor cells
Threshold of tumor cell numbers for HPV-16 detection (HPV-16 [1]; Sample # 17): 6.0 tumor cells
Threshold of tumor cell numbers for HPV-16 detection (HPV-16 [1]; Sample # 18): 1.2 tumor cells
Threshold of tumor cell numbers for HPV-16 detection (HPV-16 [1]; Sample # 19): 6.0 tumor cells
Threshold of tumor cell numbers for HPV-16 detection (HPV-16 [1]; Sample # 20): 1.2 tumor cells
Threshold of tumor cell numbers for HPV-16 detection (HPV-16 [1]; Sample # 21): 1.2 tumor cells
Threshold of tumor cell numbers for HPV-16 detection (HPV-16 [1]; Sample # 22): 6.0 tumor cells
Threshold of tumor cell numbers for HPV-16 detection (HPV-16 [1]; Sample # 23): 1.2 tumor cells
Threshold of tumor cell numbers for HPV-16 detection (HPV-16 [1]; Sample # 24): 1.2 tumor cells
Threshold of tumor cell numbers for HPV-16 detection (HPV-16 [1]; Sample # 25): 1.2 tumor cells
Threshold of tumor cell numbers for HPV-16 detection (HPV-16 [1]; Sample # 26): 1.2 tumor cells
Threshold of tumor cell numbers for HPV-16 detection (HPV-16 [1]; Sample # 27): 1.0 tumor cells
Threshold of tumor cell numbers for HPV-16 detection (HPV-16 [1]; Sample # 28): 1.0 tumor cells
Threshold of tumor cell numbers for HPV-16 detection (HPV-16 [1]; Sample # 29): 1.0 tumor cells
Threshold of tumor cell numbers for HPV-16 detection (HPV-16 [1]; Sample # 30): 150.0 tumor cells
Threshold of tumor cell numbers for HPV-16 detection (HPV-16 [1]; Sample # 31): 0.6 tumor cells
Threshold of tumor cell numbers for HPV-16 detection (HPV-16 [1]; Sample # 32): 15.0 tumor cells
Sensitivity, 1 cell (HPV-16 [1]): 0.031
Sensitivity, 3 cells (HPV-16 [1]): 0.344
Sensitivity, 10 cells (HPV-16 [1]): 0.469
Sensitivity, 30 cells (HPV-16 [1]): 0.750
Sensitivity, 100 cells (HPV-16 [1]): 0.875

B2: E6: previously designed (historical) HPV-16 E6 primers and Taqman probe, SEQ ID NO: 7-9, positive control (nucleic acid)
DNA 1: TCAGGACCCACAGGAGCG
DNA 2: CCTCACGTCGCAGTAACTGTTG
DNA 3: CCCAGAAAGTTACCACAGTTATGCACAGAGCT
modifications: Taqman probe, labels not given here
sensitivity (HPV-16 copies) (HPV-16 genome; HPV-16 genome among normal 10 ng DNA samples, consistent triplicate reaction): 30 copies
reaction under 10 copies of HPV-16 genome (HPV-16 genome; [3]): reacted inconsistently
reaction under 30 copies of HPV-16 genome (HPV-16 genome; [3]): reacted consistently triplicate; also recorded: reacted consistently in triplicates
number of reactions against 10 HPV-16 copies (HPV-16 genome): one
number of reactions under 30 HPV-16 copies (HPV-16 genome): 3 reactions
sensitivity of detection from saliva 20 ng DNA samples (HPV-16 [2]): 32.1%
sensitivity under 100 cells (HPV-16 [1]): 90.6%
sensitivity under single cells (HPV-16 [1]): 12.5%
sensitivity under 10 cells (HPV-16 [1]): 53.1%
Threshold of tumor cell numbers for HPV-16 detection (HPV-16 [1]; Sample # 1): 150.0 tumor cells
Threshold of tumor cell numbers for HPV-16 detection (HPV-16 [1]; Sample # 2): 30.0 tumor cells
Threshold of tumor cell numbers for HPV-16 detection (HPV-16 [1]; Sample # 3): 6.0 tumor cells
Threshold of tumor cell numbers for HPV-16 detection (HPV-16 [1]; Sample # 4): 150.0 tumor cells
Threshold of tumor cell numbers for HPV-16 detection (HPV-16 [1]; Sample # 5): 30.0 tumor cells
Threshold of tumor cell numbers for HPV-16 detection (HPV-16 [1]; Sample # 6): 150.0 tumor cells
Threshold of tumor cell numbers for HPV-16 detection (HPV-16 [1]; Sample # 7): 30.0 tumor cells
Threshold of tumor cell numbers for HPV-16 detection (HPV-16 [1]; Sample # 8): 15.0 tumor cells
Threshold of tumor cell numbers for HPV-16 detection (HPV-16 [1]; Sample # 9): 60.0 tumor cells
Threshold of tumor cell numbers for HPV-16 detection (HPV-16 [1]; Sample # 10): 30.0 tumor cells
Threshold of tumor cell numbers for HPV-16 detection (HPV-16 [1]; Sample # 11): 60.0 tumor cells
Threshold of tumor cell numbers for HPV-16 detection (HPV-16 [1]; Sample # 12): 15.0 tumor cells
Threshold of tumor cell numbers for HPV-16 detection (HPV-16 [1]; Sample # 13): 6.0 tumor cells
Threshold of tumor cell numbers for HPV-16 detection (HPV-16 [1]; Sample # 14): 6.0 tumor cells
Threshold of tumor cell numbers for HPV-16 detection (HPV-16 [1]; Sample # 15): 6.0 tumor cells
Threshold of tumor cell numbers for HPV-16 detection (HPV-16 [1]; Sample # 16): 6.0 tumor cells
Threshold of tumor cell numbers for HPV-16 detection (HPV-16 [1]; Sample # 17): 30.0 tumor cells
Threshold of tumor cell numbers for HPV-16 detection (HPV-16 [1]; Sample # 18): 6.0 tumor cells
Threshold of tumor cell numbers for HPV-16 detection (HPV-16 [1]; Sample # 19): 1.2 tumor cells
Threshold of tumor cell numbers for HPV-16 detection (HPV-16 [1]; Sample # 20): 0.5 tumor cells
Threshold of tumor cell numbers for HPV-16 detection (HPV-16 [1]; Sample # 21): 1.2 tumor cells
Threshold of tumor cell numbers for HPV-16 detection (HPV-16 [1]; Sample # 22): 0.3 tumor cells
Threshold of tumor cell numbers for HPV-16 detection (HPV-16 [1]; Sample # 23): 1.2 tumor cells
Threshold of tumor cell numbers for HPV-16 detection (HPV-16 [1]; Sample # 24): 1.2 tumor cells
Threshold of tumor cell numbers for HPV-16 detection (HPV-16 [1]; Sample # 25): 0.3 tumor cells
Threshold of tumor cell numbers for HPV-16 detection (HPV-16 [1]; Sample # 26): 0.6 tumor cells
Threshold of tumor cell numbers for HPV-16 detection (HPV-16 [1]; Sample # 27): 15.0 tumor cells
Threshold of tumor cell numbers for HPV-16 detection (HPV-16 [1]; Sample # 28): 3.0 tumor cells
Threshold of tumor cell numbers for HPV-16 detection (HPV-16 [1]; Sample # 29): 3.0 tumor cells
Threshold of tumor cell numbers for HPV-16 detection (HPV-16 [1]; Sample # 30): 15.0 tumor cells
Threshold of tumor cell numbers for HPV-16 detection (HPV-16 [1]; Sample # 31): 3.0 tumor cells
Threshold of tumor cell numbers for HPV-16 detection (HPV-16 [1]; Sample # 32): 15.0 tumor cells
Sensitivity, 1 cell (HPV-16 [1]): 0.125
Sensitivity, 3 cells (HPV-16 [1]): 0.250
Sensitivity, 10 cells (HPV-16 [1]): 0.531
Sensitivity, 30 cells (HPV-16 [1]): 0.844
Sensitivity, 100 cells (HPV-16 [1]): 0.906
